Tested on: K4 kissing-loop RNA reporter
Experiment: apparent KD of K4 kissing-loop reporter; higher = weaker reporter binding
Details: Eterna round: R107
Method: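 RNA-MaP round R107: designed RNA switches with theophylline, tryptophan, arginine or FMN aptamers are transcribed on-chip within common flanks. They are titrated with a labelled K4 kissing-loop RNA reporter in RNA-MaP buffer (100 mM Tris pH 7.5, 80 mM KCl, 4 mM MgCl2), without ligand or with the indicated ligand. Median apparent KD per design.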

[1] = input ligand: theophylline 20 uM
[2] = input ligand: tryptophan 2.4 mM
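Further: bound reporter read as fluorescence of individual clusters on recovered sequencing chips by microscopy, with normalized cluster intensities fitted with a binding model.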

Row | Sequence | apparent KD of K4 kissing-loop reporter (input ligand: FMN 200 uM) | apparent KD of K4 kissing-loop reporter (input ligand: arginine 13.2 mM) | apparent KD of K4 kissing-loop reporter (input ligand: none) | apparent KD of K4 kissing-loop reporter [1] | apparent KD of K4 kissing-loop reporter [2]
1 | UGUACCGAGUCAGGAUAUGGCGUCGAAAGACGAAUUCUAGUGAUGUUAGGGAUCUGCGAAAGCAGUCCAGAAGGGACUUGGUACU [FmnBS 26 U36] | 322 nM | 439 nM | 607 nM | 692 nM | 542 nM
2 | UGUACCGAGUCAGGAUAUGGUAUACCGGAAACGGACCAGUGAUGUUGGAGGCGAAAGCCAUAAAAUCCAGAAGGGACUUGGUACU [FmnBS 19 #SwitchBubble #StaticStem #DoubleMagnetSystem] | 223 nM | 569 nM | 614 nM | 893 nM | 411 nM
3 | UGUACCGAGUCAGGAUAUGUCGUCGAAAGACGAAAUGGAGUGAUGUUCCUUAAACUGCGAAAGCAGACAGAAGGGACUUGGUACU [FmnBS 29 #SwitchBubble #StaticStem #DoubleMagnetSystem] | 160 nM | 278 nM | 385 nM | 331 nM | 274 nM
4 | UGUAUGGACUGAAGGAGCGCUAGGAGUGUGAGUGAUGUUCAUACAAAUGUAUAGAUGGUCUGGCAGGUAGGUCGCAGUCCAUACU [KL-SSArg B4] | 258 nM | 145 nM | 203 nM | 156 nM | 184 nM
5 | UGUCAUGGAAACAUGAACGUUGAAAUAAGACGAGGACCGGUACGGCCGCCACUCGAAUAAUGGUCAGUGAUGUUGACUGGAAUAA [KL-SSTryp-A form1 sub7 #dotplot2>1] | 60.5 nM | 104 nM | 70.3 nM | 103 nM | 61.3 nM
6 | UGUCAUGGAAACAUGAACGUUGAAAUAUGACGAGGACCGGUACGGCCGCCACUCGAGUAAUGGUCAGUGAUGUUGACUGGAUUAA [KL-SSTryp-A form1 sub5 #split stat1] | 59.9 nM | 110 nM | 81.9 nM | 103 nM | 51.9 nM
7 | UGUCAUUGGUCGGCCGCCACUAGAAGGUCAAAGACCAUAGAGUGAUGUUCUAAGACGAAAGUCACUAGGACCGGGACCGAUGACU [TrypBS 1 #SwitchBubble #K4Middle] | 744 nM | 1080 nM | 899 nM | 946 nM | 207 nM
8 | UGUCAUUGGUCGGCCGCCACUAGGACCGGGAGUAACCUAGUGAUGUUAGUGUGCUCGGCCGCCACUAGGACCGGGACCGAUGACU [KL-SSTryp-B22 #DoubleAptamer] | 180 nM | 164 nM | 157 nM | 165 nM | 103 nM
9 | UGUCAUUGGUCGGCCGCCACUCCAUAAAGAGUGAUGUUCUAAAAGACGGAUCGAAAGAUCUGUCGGAGGACCGGGACCGAUGACU [FiskerMod 4 - Jieux - Same State - Tryptophan B] | 1190 nM | 555 nM | 1090 nM | 549 nM | 243 nM
10 | UGUCAUUGGUCGGCCGCCACUUUGUAUGGAGUGAUGUUUUGUAGAUUGUGUUGAAAGGUGUGGUGAAGGACCGGGACCGAUGACU [FiskerMod 24 - Jieux - Same State - Tryptophan B] | 1070 nM | 652 nM | 922 nM | 841 nM | 749 nM
11 | UGUGAACAAAAGUAGAGUGGACCACUAUAGCGAGGACCGGUACGGCCGCCACUCGUGCAUGAAUUCAGUGAUGUUGAAAAGAGCU [whbob_EX_Tryp_A_t12] | 258 nM | 375 nM | 330 nM | 364 nM | 185 nM
12 | UGUGCUGUGUAGUGUAAUGUUAUGCGGGAUACCAGAGUCUUUUUAUUCCCUUGGCAGCUUGAGUGAUGUUUGAUGCUGUUCUUGU [uujmullin] | 303 nM | 305 nM | 350 nM | 371 nM | 287 nM
13 | UGUGGAGAAUAUGAUACCAGCAGAGAGAGAGAGGAAGUAUAGUGAUGUUAUAUGAGAGAAUGCCCUUGGCAGCAUAAGAAGAAGG [SSTheophylB.C] | 144 nM | 119 nM | 140 nM | 216 nM | 192 nM
14 | UGUGGAGGAUAUGAUACCAGCAGUGAGAGAGAGGAAGUAUAGUGAUGUUAUAUGAGAGAAUGCCCUUGGCAGCGUGUGUAGUGGG [SSTheophylB.K] | 184 nM | 137 nM | 146 nM | 176 nM | 145 nM
15 | UGUGUACCGGGAAGGAGCGUGAAUGAUAAUGGAUAUAGUGAUGUUAUAUAUACGAACGAAUCGCAGGUAGGUCGCCCGGAUCCCU [SSArgB.X] | 808 nM | 494 nM | 639 nM | 559 nM | 576 nM
16 | UGUGUUUACCUGACUCAGUGAUGUUGAGAAGGAGCGUGCGAACGCACAGGUAGGUCGCUCAACCUAAAUUCAGGUGAGCACUAAA | 430 nM | 443 nM | 499 nM | 611 nM | 398 nM
17 | UUAGAGAUCUCAGGAUAUCAGUGAUGUUGGUUUCCAGAUCUGAGAUAGAAUUCUAUCUCAGAUCAAUGAGAAGGGAGAUCUCAUU [AK4.1 Exc FMN B] | 535 nM | 128 nM | 151 nM | 132 nM | 123 nM
18 | UUAGAUGAUUCAUCAAGAUUGAUGAGGAAACGAGGACCGGUACGGCCGCCACUCGAGUGAUGUUCGAGAACCUCAUCAAUCAAUU [AK4.4 Exc Tryptophan A] | 162 nM | 150 nM | 154 nM | 154 nM | 333 nM
19 | UUAGUCAGAUUAUUAUUAGCCUGCGAGUCUAAGGAUAUCCGAAUUCGGAGAAGGUAGUGAUGUUACUUUGGCAGGCACUGACAUU [AK9 Exc FMN A] | 807 nM | 357 nM | 431 nM | 414 nM | 351 nM
20 | UUAUAUACGAGUGAUGUUCGUUAUUUAUCAGAGGAUAUGCUUAAAUGCAGAAGGCUGUUUUUCUAUUUGAUAUUAAAUUUUAUAA [JR_Nu3_ExcFMNA_Sub027] | 81.6 nM | 89.3 nM | 69.6 nM | 81.1 nM | 58.1 nM
21 | UUAUAUAUAUUAGAUACCAGUUUAAUGGAAACAAAUUAUGUUAUGAGUGAUGUUCAUGUAAGCCCUUGGCAGCUGGUAUGGGUUU [KL-XTheo-B18] | 235 nM | 305 nM | 237 nM | 322 nM | 207 nM

From the supplement of paper PMC9170038
